Values quoted from earlier work, collected in publication PMC11348067.

Target: Mucin 1 (human) (UniProt P15941)
Assay: not stated (cited)
Details: aptamer/padlock annealed in water with 80 mM NaCl (2 uL of 800 mM in 20 uL), then 40 uL protein added, 30 min; pH and binding temperature not stated; ligation …

Chain of Mucin 1 (human) (P15941 24-1158): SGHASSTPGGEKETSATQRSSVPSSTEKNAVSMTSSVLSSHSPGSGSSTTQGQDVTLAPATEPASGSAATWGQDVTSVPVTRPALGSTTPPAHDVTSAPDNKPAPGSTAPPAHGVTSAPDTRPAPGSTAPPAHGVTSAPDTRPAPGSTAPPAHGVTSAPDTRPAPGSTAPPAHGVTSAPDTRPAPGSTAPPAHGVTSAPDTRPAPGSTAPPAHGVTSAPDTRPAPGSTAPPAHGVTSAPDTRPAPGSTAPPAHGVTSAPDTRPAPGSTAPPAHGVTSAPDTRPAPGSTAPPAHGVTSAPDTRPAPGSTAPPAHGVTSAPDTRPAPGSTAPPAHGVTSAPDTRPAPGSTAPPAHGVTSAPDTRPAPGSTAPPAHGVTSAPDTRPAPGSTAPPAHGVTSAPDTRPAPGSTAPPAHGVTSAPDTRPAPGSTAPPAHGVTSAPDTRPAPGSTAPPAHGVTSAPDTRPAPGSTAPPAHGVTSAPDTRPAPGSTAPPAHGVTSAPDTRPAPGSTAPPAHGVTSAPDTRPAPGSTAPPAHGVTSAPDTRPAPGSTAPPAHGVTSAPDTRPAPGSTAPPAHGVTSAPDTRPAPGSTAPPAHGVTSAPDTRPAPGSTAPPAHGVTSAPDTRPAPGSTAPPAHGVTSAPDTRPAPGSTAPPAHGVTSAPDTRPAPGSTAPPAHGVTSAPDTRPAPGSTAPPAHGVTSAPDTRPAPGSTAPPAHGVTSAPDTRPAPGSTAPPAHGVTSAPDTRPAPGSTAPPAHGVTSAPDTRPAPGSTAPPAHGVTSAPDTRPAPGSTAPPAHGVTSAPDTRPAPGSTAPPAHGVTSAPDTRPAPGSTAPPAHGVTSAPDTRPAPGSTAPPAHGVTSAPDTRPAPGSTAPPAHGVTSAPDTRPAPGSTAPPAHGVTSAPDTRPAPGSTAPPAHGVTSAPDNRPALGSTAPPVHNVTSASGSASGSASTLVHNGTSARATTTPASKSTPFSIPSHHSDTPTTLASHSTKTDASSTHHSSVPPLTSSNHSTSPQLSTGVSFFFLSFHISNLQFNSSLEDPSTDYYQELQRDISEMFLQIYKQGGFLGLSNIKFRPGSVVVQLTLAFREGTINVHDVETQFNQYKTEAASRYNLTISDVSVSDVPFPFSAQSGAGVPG

## GCAGTTGATCCTTTGGATACCCTGGAGTGA [Mucin 1 aptamer]
  Kd: 0.135 nM
